Data: patent US20090285830A1 (published 2009)
Substitutions are numbered along the chain they refer to. Numbers in names are those of the source.

B1: humanized 3F12 version 8 (v5 with CDR-H3 G95A) (antibody, V domains shown)
VH: EVQLVESGGGLVQPGGSLRLSCAASGYTFSSYWIEWVRQAPGKGLEWVGEISPGSGSTNYNEEFKGRATFSADNSKNTAYLQMNSLRAEDTAVYYCADAYHGYWGQGTLVTVSS
VL: DIQMTQSPSSLSASVGDRVTITCKSSQSLLYSTNQKNFLAWYQQKPGKAPKLLIYWASTRDSGVPSRFSGSGSGTDFTLTISSLQPEDFATYYCQQYYSYPRTFGQGTKVEIK
B2: humanized 3F12 version 10 (v5 with CDR-H3 H100A) (antibody, V domains shown)
VH: B1 VH with A99G, H101A
VL: B1 VL
B3: humanized 3F12 v2 (antibody, V domains shown)
VH: B1 VH with A79L, A99G
VL: DIQMTQSPSSLSASVGDRVTITCKSSQSLLYSTNQKNFLAWYQQKPGKAPKLLIYWASTRDSGVPSRFSGSGSGTDFTLTISSLQPEDFATYYCQQYYSYPRTFGQGTKVEIKR
B4: humanized 3F12 v3 (antibody, V domains shown)
VH: B1 VH with F70I, N74K, A79L, A99G
VL: B3 VL
B5: humanized 3F12 v4 (antibody, V domains shown)
VH: B1 VH with F70I, A99G
VL: B3 VL
B6: chimeric anti-LTα antibody 2C8 (murine/human chimera) (antibody, human IgG1, kappa, V domains shown)
VH: EVQLQQSGPELVKPGASVKLSCKASGYTFTSYVIHWVKQKPGQGLEWIGYNNPYNDGTNYNEKFKGKATLTSDKSSSTAYMELSSLTSEDSAVYYCSRPTMLPWFAYWGQGTTLTVSA
VL: DIVMTQSHKFMSTSVGDRVSITCKASQAVSSAVAWYQQKPGQSPKLQIYSASHRYTGVPDRFTGSGSGTDFTFTISSVQAEDLAVYYCQQHYSTPWTFGGGTKVEIKR
notes: also called 2C8 chimera; 2C8.chimera
B7: humanized 2C8.v2 (antibody, IgG1, V domains shown)
VH: EVQLVESGGGLVQPGGSLRLSCAASGYTFTSYVIHWVRQAPGKGLEWVGYNNPYNDGTNYNEKFKGRATISSDKSKNTAYLQMNSLRAEDTAVYYCSRPTMLPWFAYWGQGTLVTVSS
VL: DIQMTQSPSSLSASVGDRVTITCRASQAVSSAVAWYQQKPGKAPKLQIYSASHRYTGVPSRFSGSGSGTDFTLTISSLQPEDFATYYCQQHYSTPWTFGQGTKVEIKR
notes: also called Version 2; wild-type 2C8.v2
B8: humanized 2C8.v7 (antibody, V domains shown)
VH: B7 VH
VL: B7 VL with Q47L
B9: humanized 2C8.v12 (antibody, V domains shown)
VH: B7 VH with A68F
VL: B7 VL with Q47L
notes: HC v12 = HC v2 + A67F); also called Version 12
B10: humanized 2C8.v16 (antibody, V domains shown)
VH: B7 VH with A68F
VL: B7 VL with Q47L, Q90E, H91S
notes: HC v12 = HC v2 + A67F

How the values were obtained:
[1] = molecular target: T1, recombinant human lymphotoxin-α (LTα), homotrimer LTα3 (human) (UniProt P01374); assay: plate-based ELISA against LTα
T1 sequence (looked up): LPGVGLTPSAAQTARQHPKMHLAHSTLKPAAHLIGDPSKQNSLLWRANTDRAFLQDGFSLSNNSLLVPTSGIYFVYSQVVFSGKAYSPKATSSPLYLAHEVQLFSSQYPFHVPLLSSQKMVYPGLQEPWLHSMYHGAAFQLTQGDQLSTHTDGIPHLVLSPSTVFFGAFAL

[2] = molecular target: T2, recombinant human lymphotoxin-α (LTα), homotrimer LTα3 (human, UniProt P01374 35-205); assay: plate ELISA on coated LTα
T2 construct: One molecule is used for 'LTα' (plate ELISA), 'rhLTα' (BIACORE, phage ELISA) and 'human LTα3'; also called human LTα3; rhLTα
T2 sequence (looked up): T1 sequence (looked up)

[3] = molecular target: T2, recombinant human lymphotoxin-α (LTα), …; assay: plate-based ELISA on human LTα, ratio to the chimera

Row | Binder | Relative binding (to the original chimera) [2] | ELISA IC50 ratio [3] | further results
1 | B1 |  |  | relative binding (EC50 of the variant / EC50 of version 5) [1]: > 100
2 | B2 |  |  | relative binding (EC50 of the variant / EC50 of version 5) [1]: > 100
3 | B3 | > 1000 x down |  | 
4 | B4 | > 1000 x down |  | 
5 | B5 | > 500 x down |  | 
6 | B6 |  | 1 | 
7 | B7 |  | 1.7 | 
8 | B8 |  | 1.2 | 
9 | B9 |  | 1 | 
10 | B10 |  | 0.6 | 
